From patent EP2138508A1 (Helmholtz-Zentrum für Infektionsforschung GmbH, dated 2009)

Key:
[1] = molecular target: Met receptor on MDCK cells (UniProt Q75ZY9 25-1382); experiment: cell-based or functional assay
[2] = molecular target: Met receptor on MK keratinocytes (mouse, UniProt P16056 25-1379); experiment: cell-based or functional assay

B1: InIB321_Crys (InIB321 G206C A227C C242A, "crystal dimer") (ligand)
chain: ETITVPTPIKQIFSDDAFAETIKDNLKKKSVTDAVTQNELNSIDQIIANNSDIKSVQGIQYLPNVTKLFLNGNKLTDIKPLANLKNLGWLFLDENKVKDLSSLKDLKKLKSLSLEHNGISDINGLVHLPQLESLYLGNNKITDITVLSRLTKLDTLSLEDNQISDIVPLACLTKLQNLYLSKNHISDLRALCGLKNLDVLELFSQEALNKPINHQSNLVVPNTVKNTDGSLVTPEIISDDGDYEKPNVKWHLPEFTNEVSFIFYQPVTIGKAKARFHGRVTQPLKE
modifications: two intermolecular disulfides: Cys 206 of chain A with Cys 227 of chain B and vice versa
- cell scattering of MDCK cells, potency relative to HGF and InIBfl [1]: ~2 orders of magnitude
- stimulation of DNA synthesis in MK keratinocytes, activity relative to full-length InIB [2]: ~10 fold
